Data from patent US10149922B1, “Engineered collagen matrices for myocardial therapy” (The Board of Trustees of the Leland Stanford Junior …, priority 2012, dated 2018).

Tests used:
[1] = test system: FSTL1-induced proliferation of immature cardiomyocytes; experiment: Screen of signal transduction inhibitors on FSTL1-induced proliferation; assay type: cell-based; settings: EMD StemSelect compound library
Experimental: (§1) Experiments were conducted to analyze the proliferative response of early cardiomyocytes to FSTL1. 7 days following FSTL1 treatment, we observed that a remarkable 50% of the differentially expressed transcripts are known targets of the JAK/STAT and interferon related (IFR) pathways.

mCM-d2 = experiment: phospho-Histone3 proliferation in mCM-d2; assay type: cell-based, mouse; settings: mCM-d2 treated for 48 hrs
[2] = test system: mESC-derived immature cardiomyocytes (mCM-d2); experiment: Kinetic Image Cytometry of rhythmic calcium transients in mCM-d2; assay type: cell-based, mouse; settings: 10 ng/ml, eight days of treatment, mCM-d2, KIC analysis
Experimental: (§2) H2B-mCherry EMCs were maintained in DMEM with 10% FBS and antibiotics/antimycotic. Myh6-Puro^r;Rex-Blast^r mESCs were generated by Lentiviral transduction and Blasticidin selection, and then cultured. For cardiac differentiation, ESCs were cultured in Iscove's Modified Dulbecco Media (IMDM) supplemented with 10% FBS, 2 mM glutamine, 4.5×10^−4 M monothioglycerol, 0.5 mM ascorbic acid, 200 ug/mL transferrin (Roche), 5% protein-free hybridoma media (PFHM-II, Invitrogen) and antibiotics/antimycotic and differentiated as either embryoid bodies (EBs) formation or monolayer. Puromycin was added at differentiation day 10 for two days to enrich cardiomyocyte. The cells were then trypsinized and plated as monolayer cardiomyocytes. Conditioned media were collected after 2 days culturing of confluent EMC cells and passed through 0.22 um filters (Millipore). Control conditioned media were prepared the same way without EMC cells. Recombinant Fstl1 was purchased from ADIPO BIOSCIENCE.
Kinetic Image Cytometer from Vala was used as instructed to record intracellular calcium transient with Fluo4 NW calcium indicator (Life Science). Data was processed using Cyteseer (Vala).

[3] = test system: mESC-derived immature cardiomyocytes (mCM-d2); experiment: Q-RT-PCR of cardiac-specific markers in mCM-d2; assay type: cell-based, mouse; settings: 10 ng/ml, eight days of treatment
Experimental: as §2
Total RNA was extracted with TRIzol (Invitrogen) and reverse transcribed to cDNA with QuantiTect Reverse Transcription Kit (Qiagen) according to the manufacturer's instructions. cDNA samples synthesized from 100 ng of total RNA were subjected to RT-QPCR with LightCycler 480 SYBR Green I Master kit (Roche) performed with LightCycler 480 Real-Time PCR System (Roche).

[4] = test system: mESC-derived immature cardiomyocytes (mCM-d2); experiment: Number of α-actinin+ cardiomyocytes in mCM-d2 cultures; assay type: cell-based, mouse; settings: 10 ng/ml, eight days of treatment
Experimental: as §2
We utilized an epicardial/mesothelial cell line (EMC) to investigate the interaction between epicardium and myocardium.
We applied 10 ng/ml purified hFstl1 onto the mCM-d2 system of ESC-derived early cardiomyocytes, similarly to the coculture and conditioned media experiments described in FIG. 2.

[5] = test system: Neonate Rat Ventricular Cardiomyocytes (NRVC); experiment: Cell cycle profile of neonate rat ventricular cardiomyocytes (flow cytometry); assay type: cell-based; settings: NRVC treated for 24 hours
Experimental: Ventricular cardiomyocytes were isolated with neonatal rat cardiomyocyte isolation kit (Cellutron) and cultured at 37° C. with 5% CO2. In brief, ventricles were dissected from 1-2-d-old Hsd:SD rats (Sprage Dawley), then digested five times for 15 min each with the enzyme cocktail at 37° C. Cells were pooled, preplated for 90 min on an uncoated dish to remove fibroblasts, and plated on 1% gelatin-coated cell culture plastic dishes in high-serum media (DME/F12 [1:1], 0.2% BSA, 3 mM sodium-pyruvate, 0.1 mM ascorbic acid, 4 mg/liter transferrin, 2 mM L-glutamine, and 5 mg/liter ciprofloxacin supplemented with 10% horse serum and 5% FCS) at 3×10^5 cells/cm2. After 24 h, media was changed to low-serum medium (same but with 0.25% FCS) and cultured until use.
The cell cycle profile of cardiac cells was analyzed as described. In brief, cells were fixed for 1 h at 4° C. with 0.25% PFA and then permeabilized for 15 min at 37° C. with 0.2% Tween 20 before incubation with α-actinin and secondary antibodies (Alexa 488—conjugated anti-mouse Ig) diluted 1:100 in FACS buffer (PBS with 1% goat serum and 0.1% NaN3). Cells were then stained with 10 μg/ml propidium iodide in FACS buffer supplemented with 500 μg/ml of RNAase A. Flow cytometry was performed on BD FACSCanto. FlowJo and ModFit software were used to analyze the results.

mouse MI model = experiment: Route of FSTL1 delivery in the mouse MI model; assay type: in vivo; settings: compared to epicardial-localized delivery
Description: Key variables, including time of delivery and the effectiveness following reperfusion. A second critical issue concerns the localized site of FSTL1 delivery. Systemic delivery was not effective in the mouse MI model, compared to epicardial-localized delivery. However, the present the epicardial biomaterial patch itself may provide an effective physical support that could synergize with a systemic FSTL1 delivery. FSTL1 must be delivered epicardial to be effective, and may done by impregnated into the collagen of the patch.

early cardiomyocytes = experiment: Whole transcriptome profiling of early cardiomyocytes after FSTL1 treatment; assay type: cell-based; settings: 7 days following FSTL1 treatment
Experimental: In one approach, whole transcriptome profiling after long and short term treatment is used. Transcriptome profiling is a common approach to gain insight into signaling pathways through the analysis of pathway selective gene expression. Responsive cells selected in the previous experiments are incubated with FSTL1 for 24 hours (short-term) or 7 day (long-term). Transcripts are profiled using microarrays (Affymetrix). Candidate factors are then validated functionally using small molecule inhibitors (if available) and/or siRNA.
as §1

| Molecule | effect on FSTL1-induced proliferation [1] | phospho-Histone3+ cells (mCM-d2) | increase in the number of cardiomyocytes displaying rhythmic calcium transient [2] | increase in mRNA content of contractile proteins (including Myh6, Mlc2v, and Mlc2a) [3] | increase in the number of cardiomyocytes [4] [fold] | percentage of cells in S/G2/M phase [5] | efficacy of systemic delivery (mouse MI model) | differentially expressed transcripts that are known targets of the JAK/STAT and interferon related (IFR) pathways (early cardiomyocytes) [%] |
| --- | --- | --- | --- | --- | --- | --- | --- | --- |
| C[C@H](NC(=O)/C(C#N)=C/c1cccc(Br)n1)c1ccccc1 [WP1066] | blocked | – | – | – | – | – | – | – |
| Fstl1: Secreted glycoprotein encoded by the FSTL1 gene (SEQ ID NO: 1, UniProt Q12841); recombinant protein purchased from ADIPO BIOSCIENCE (protein, listed as Homo sapiens) MWKRWLALALALVAVAWVRAEEELRSKSKICANVFCGAGRECAVTEKGEPTCLCIEQCKPHKRPVCGSNGKTYLNHCELHRDACLTGSKIQVDYDGHCKEKKSVSPSASPVVCYQSNRDELRRRIIQWLEAEIIPDGWFSKGSNYSEILDKYFKNFDNGDSRLDSSEFLKFVEQNETAINITTYPDQENNKLLRGLCVDALIELSDENADWKLSFQEFLKCLNPSFNPPEKKCALEDETYADGAETEVDCNRCVCACGNWVCTAMTCDGKNQKGAQTQTEEEMTRYVQELQKHQETAEKTKRVSTKEI | – | significantly more | 7-8 folds | 2-3 folds | 4 | significantly increased | not effective | 50 |
